Measurements from publication PMC6624275.

Target: Hen egg-white lysozyme (Hewl) (hen) (UniProt P00698)
Sequence (P00698 19-147): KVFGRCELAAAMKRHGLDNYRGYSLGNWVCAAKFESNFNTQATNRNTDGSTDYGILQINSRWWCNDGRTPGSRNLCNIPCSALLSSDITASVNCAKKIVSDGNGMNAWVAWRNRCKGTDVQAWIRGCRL

| Substance | reduction of Hewl (10 U/well)-mediated lysis of M. lysodeikticus cells (OD at 595 nm, 25 °C), rDn-ACP 3-90 pmol/well, read at 2 h and 24 h | reduction of Hewl (10 U/well)-mediated lysis of M. lysodeikticus cells (OD at 595 nm, 25 °C), rNm-ACP 6-180 pmol/well, read at 2 h and 24 h |
| --- | --- | --- |
| recombinant Dichelobacter nodosus Adhesin Complex Protein (rDn-ACP) (from UniProt A5EV15 1-230) (natural protein) | 100% |  |
| recombinant Neisseria meningitidis Adhesin Complex Protein (rNm-ACP) (natural protein) |  | 80% |
